In patent US6844318B2, “Peptidase-cleavable, targeted antineoplastic drugs and their therapeutic use” (priority 2000, dated 2005):
Read-outs that look alike come from different tables or passages of the source. Residues, ends and D or L forms follow the SMILES beside them. *: point of attachment. Doxorubicin(3'-N) = COc1cccc2c1C(=O)c1c(O)c3c(c(O)c1C2=O)C[C@@](O)(C(=O)CO)C[C@@H]3O[C@H]1C[C@H](N*)[C@H](O)[C@H](C)O1

Experiments:
[1] = Stability of conjugates in human blood; assay type: in vitro ADME; settings: fresh heparinized whole human blood, 37° C., read-out: Conjugate Stability in Blood After 5.5 Hours (Percent of Control (In Buffer, T = 0)), Human Blood
Protocol: (§1) The stability of doxorubicin conjugated peptides in human or nude mouse blood was evaluated by reverse phase HPLC with fluorescence detection after an 80% acetonitrile extraction. Individual peptides are prepared as 60 μmolar solutions in Hepes buffer pH 7.5 (50 mM), with CaCl2 (10 mM), Brij-35 (0.1%), followed by dilution to 10 μmolar in fresh heparinized whole blood or buffer. Solutions are incubated (37° C.) with slow continuous rocking. 50 μl reactions are terminated at designated times ranging from 1 minute to 24 hours by vortexing into 200 μl acetonitrile. After a brief centrifugation (1 min, 14,000×g) to pellet the precipitate, the acetonitrile is collected and evaporated to dry under a flow of nitrogen. Extracted samples are resuspended in 50 μl acetonitrile, followed by 100 μl distilled H2O, and transferred to HPLC autoinjector vials. Samples are chromatographed using a Nova-Pak C18 column (3.9×150 mm; WAT086344, Waters Corp. Milford, Ma), with a 12 minute linear gradient from 33.3 to 77.7% acetonitrile, 0.1% TFA, using a flow rate of 1 ml/min. A scanning fluorescence detector (# 474, Waters Corp) monitoring 480 nm excitation, 580 nm emission quantitates AUC of peaks of interest; mass is extrapolated from a standard curve generated under matching conditions.

[2] = Stability of conjugates in Hepes buffer (control of blood stability test); assay type: physicochemical; settings: Hepes buffer pH 7.5, 10 μmolar, 37° C.
Protocol: as §1

[3] = Stability of conjugates in nude mouse blood; assay type: in vitro ADME; settings: fresh heparinized whole nude mouse blood, 37° C., read-out: Conjugate Stability in Blood After 5.5 Hours (Percent of Control (In Buffer, T = 0)), Nude Mouse Blood
Protocol: as §1

HT1080 cells [4] = test: cells; assay type: cell-based
Protocol: The conjugates were tested for cytotoxic effect against the HT1080 cell line, which expresses multiple MMPs. […] HT 1080 cells in culture have significant levels of MMPs 2, 9, and 14 and are consequently especially suitable for the evaluation of conjugates that are substrates for that enzyme.
The cell line was grown in tissue MEM with Earl's salts containing 10% fetal bovine serum (FBS). On day one, 500 cells were seeded into 96 well plates in 200 ul of cell culture medium that containing 10% FBS which had been stripped of bovine gelatinases by prior passage over a gelatin-sepharose column. On day two, peptidyl-Doxorubicin conjugates and Doxorubicin as a control were added to the plates. The cells were incubated for three days at 37° C., 5% CO2 in a tissue culture cell incubator. MTS reagent was added to each microplate well using the manufacturer's instructions […]. The plates were incubated for 2 hours at 37° C., 5% CO2. The plates were read on a Molecular Devices Spectropmax 250 plate reader at […]. The viability of the cells in each well was then calculated for each concentration of compound tested and compared to the control wells where no compound was added.

[5] = cited from earlier work
prostate tumor cells = settings: cited from earlier work
PSA protease = PSA protease (Homo sapiens, UniProt P07288); settings: cited from earlier work
Sequence of PSA protease (P07288 25-261): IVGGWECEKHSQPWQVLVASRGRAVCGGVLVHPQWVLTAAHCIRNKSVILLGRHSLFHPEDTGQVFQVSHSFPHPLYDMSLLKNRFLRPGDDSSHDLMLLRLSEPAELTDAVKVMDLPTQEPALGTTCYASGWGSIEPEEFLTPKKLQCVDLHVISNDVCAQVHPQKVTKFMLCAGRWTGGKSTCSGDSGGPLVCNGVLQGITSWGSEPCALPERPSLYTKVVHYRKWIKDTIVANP

[6] = tested on: human ovarian tumor xenograft; settings: equitoxic doses; cited from earlier work
[7] = Phase I trial, in the tumor tissue; cited from earlier work
[8] = mice; cited from earlier work
HT1080 cells [9] = test: Analysis of processing by HT1080 cultures (HPLC); assay type: cell-based
Protocol: Actively growing HT1080 cells are seeded in a 12 well plate at 2×10^5 cells per well in DMEM with 10% serum. On the next day, media is removed and cells are washed twice with PBS. 1.5 of DMEM containing 0.1% BSA, […] Ac-PLG-HofK(Me2)L-Dox (SEQ ID NO: 127) and 40 nM PMA is then added to each well. A broad spectrum MMP inhibitor is added to some samples so that the amount of processing that is due to MMPs can be determined. At the indicated times, 0.1 ml aliquots are removed, added to 0.4 ml acetonitrile, vortexed, and centrifuged for 2 minutes. 0.4 of cleared supernatant is removed and dried using a nitrogen stream. The dried pellet is suspended in 0.12 ml of HPLC Buffer A and analyzed as in Example 1000.
At the times used in this experiment, the only detectable metabolite is L-Dox. HofK(Me2)L-Dox and K(Me2)L-Dox are not detected since they are rapidly converted to L-Dox. At later times, Dox is formed from L-Dox.

[10] = HT1080 cells, three days, MTS, read-out: EC50

Molecule | remaining at 5.5 h, 10 μmolar [1] [%] | Conjugate Stability After 5.5 Hours (Percent of Control (In Buffer, T = 0)), Buffer [2] [%] | remaining at 5.5 h, 10 μmolar [3] [%] | also measured
COc1cccc2c1C(=O)c1c(O)c3c(c(O)c1C2=O)C[C@@](O)(C(=O)CO)C[C@@H]3O[C@H]1C[C@H](NC(=O)[C@H](CC(C)C)NC(=O)CNC(=O)[C@H](CC(C)C)NC(=O)[C@@H]2CCCN2C(=O)CNC(C)=O)[C@H](O)[C@H](C)O1 [Ac-GPLG-L-Dox] (Ac-GPLGL-{Doxorubicin(3'-N)}) | 10.2 | 106 | 5.9 | 
COc1cccc2c1C(=O)c1c(O)c3c(c(O)c1C2=O)C[C@@](O)(C(=O)CO)C[C@@H]3O[C@H]1C[C@H](NC(=O)[C@H](CC(C)C)NC(=O)[C@H](C)NC(=O)[C@H](CC(C)C)NC(=O)CNC(=O)[C@H](CC(C)C)NC(=O)[C@@H]2CCCN2C(=O)CNC(C)=O)[C@H](O)[C@H](C)O1 [Ac-GPLG-LAL-Dox, acetyl-G-P-L-G-L-A-L-Dox] (Ac-GPLGLAL-{Doxorubicin(3'-N)}) | 15.4 | 92.2 | 5.8 | 
COc1cccc2c1C(=O)c1c(O)c3c(c(O)c1C2=O)C[C@@](O)(C(=O)CO)C[C@@H]3O[C@H]1C[C@H](NC(=O)[C@H](CC(C)C)NC(=O)[C@H](CC(C)C)NC(=O)CNC(=O)[C@H](CC(C)C)NC(=O)[C@@H]2CCCN2C(=O)CNC(C)=O)[C@H](O)[C@H](C)O1 [Ac-GPLG-LL-Dox, acetyl-G-P-L-G-L-L-Dox] (Ac-GPLGLL-{Doxorubicin(3'-N)}) | 42.6 | 105 | 25.8 | 
COc1cccc2c1C(=O)c1c(O)c3c(c(O)c1C2=O)C[C@@](O)(C(=O)CO)C[C@@H]3O[C@H]1C[C@H](NC(=O)[C@H](CC(C)C)NC(=O)CNC(=O)[C@H](CC(C)C)NC(=O)[C@@H]2CCCN2C(C)=O)[C@H](O)[C@H](C)O1 [Ac-PLG-L-Dox, Ac-PLGL-Dox] (Ac-PLGL-{Doxorubicin(3'-N)}) | 74.7 | 99.2 | 68.2 | 
COc1cccc2c1C(=O)c1c(O)c3c(c(O)c1C2=O)C[C@@](O)(C(=O)CO)C[C@@H]3O[C@H]1C[C@H](NC(=O)[C@H](CC(C)C)NC(=O)[C@H](C)NC(=O)[C@H](CC(C)C)NC(=O)CNC(=O)[C@H](CC(C)C)NC(=O)[C@@H]2CCCN2C(C)=O)[C@H](O)[C@H](C)O1 [Ac-PLG-LAL-Dox, acetyl-P-L-G-L-A-L-Dox] (Ac-PLGLAL-{Doxorubicin(3'-N)}) | 49.1 | 96.8 | 9 | EC50 (HT1080 cells [4]; [10]): < 10 µM
COc1cccc2c1C(=O)c1c(O)c3c(c(O)c1C2=O)C[C@@](O)(C(=O)CO)C[C@@H]3O[C@H]1C[C@H](NC(=O)[C@H](CC(C)C)NC(=O)[C@H](CC(C)C)NC(=O)CNC(=O)[C@H](CC(C)C)NC(=O)[C@@H]2CCCN2C(C)=O)[C@H](O)[C@H](C)O1 [Ac-PLG-LL-Dox, Acetyl-P-L-G-L-L-Dox] (Ac-PLGLL-{Doxorubicin(3'-N)}) | 87.2 | 106 | 63.8 | EC50 (HT1080 cells [4]; [10]): < 10 µM
COc1cccc2c1C(=O)c1c(O)c3c(c(O)c1C2=O)C[C@@](O)(C(=O)CO)C[C@@H]3O[C@H]1C[C@H](NC(=O)[C@H](CC(C)C)NC(=O)[C@H](C)NC(=O)[C@H](CC(C)C)NC(=O)[C@H](CC(C)C)NC(=O)CNC(=O)[C@H](CC(C)C)NC(=O)[C@@H]2CCCN2C(C)=O)[C@H](O)[C@H](C)O1 [Ac-PLG-LLAL-Dox, acetyl -P-L-G-L-L-A-L-Dox] (Ac-PLGLLAL-{Doxorubicin(3'-N)}) | 55.6 | 102.0 | 19.2 | EC50 (HT1080 cells [4]): < 10 µM
COc1cccc2c1C(=O)c1c(O)c3c(c(O)c1C2=O)C[C@@](O)(C(=O)CO)C[C@@H]3O[C@H]1C[C@H](NC(=O)[C@H](CC(C)C)NC(=O)[C@H](C)NC(=O)[C@H](Cc2ccc(O)cc2)NC(=O)[C@H](CC(C)C)NC(=O)CNC(=O)[C@H](CC(C)C)NC(=O)[C@@H]2CCCN2C(C)=O)[C@H](O)[C@H](C)O1 [Ac-PLG-LYAL-Dox, acetyl -P-L-G-L-Y-A-L-Dox] (Ac-PLGLYAL-{Doxorubicin(3'-N)}) | 37.5 | 91.3 | 20 | EC50 (HT1080 cells [4]; [10]): < 10 µM
COc1cccc2c1C(=O)c1c(O)c3c(c(O)c1C2=O)C[C@@](O)(C(=O)CO)C[C@@H]3O[C@H]1C[C@H](NC(=O)[C@H](CC(C)C)NC(=O)[C@H](Cc2ccc(O)cc2)NC(=O)[C@H](CC(C)C)NC(=O)CNC(=O)[C@H](CC(C)C)NC(=O)[C@@H]2CCCN2C(C)=O)[C@H](O)[C@H](C)O1 [Ac-PLG-LYL-Dox, acetyl-P-L-G-L-Y-L-Dox] (Ac-PLGLYL-{Doxorubicin(3'-N)}) | 90.1 | 112 |  | 
COc1cccc2c1C(=O)c1c(O)c3c(c(O)c1C2=O)C[C@@](O)(C(=O)CO)C[C@@H]3O[C@H]1C[C@H](N)[C@H](O)[C@H](C)O1 [Doxorubicin, doxorubicin, reference compound] |  |  |  | EC50 (HT1080 cells [4]; Homo sapiens, HT-1080, 72 h, HT1080 cells, three days, MTS, read-out: EC50): 0.008 to 0.009 µM; cumulative dose in excess of which there is a substantial risk of cardiotoxicity and myelosuppression [5]: 500 to 550 mg doxorubicin/m^2
Ac-HSSKLQ-Leu-Dox: peptide-doxorubicin pro-drug targeted to the prostate-specific antigen (XSSKLQL; N-acetyl, Leu-doxorubicin conjugate) |  |  |  | activity against prostate tumor cells which express the protease activity (prostate tumor cells): is active against prostate tumor cells; substrate for the PSA protease (PSA protease): is a substrate for the PSA protease
Leu-Dox |  |  |  | anti-tumor efficacy compared with free doxorubicin [6]: more effective anti-tumor agent than free doxorubicin; conversion of Leu-Dox to Dox [7]: approximately 25%; overall conversion of Leu-Dox to Dox [8]: approximately 20%
acetyl-P-L-G-Hof-(N,N-dimethyl-K)-L-Dox (XLGXXL; non-natural residues) [Ac-PLG-HofK(Me2)L-Dox] |  |  |  | Fraction of L-Dox (HT1080 cells [9]; 0 hours, Minus MMP inhibitor): 0; Fraction of L-Dox (HT1080 cells [9]; 0 hours, Plus MMP inhibitor): 0; Fraction of L-Dox (HT1080 cells [9]; 3 hours, Minus MMP inhibitor): 0.10; Fraction of L-Dox (HT1080 cells [9]; 3 hours, Plus MMP inhibitor): 0.004; Fraction of L-Dox (HT1080 cells [9]; 5.5 hours, Minus MMP inhibitor): 0.20; Fraction of L-Dox (HT1080 cells [9]; 5.5 hours, Plus MMP inhibitor): 0.01; Fraction of L-Dox (HT1080 cells [9]; 8 hours, Minus MMP inhibitor): 0.46; Fraction of L-Dox (HT1080 cells [9]; 8 hours, Plus MMP inhibitor): 0.02
